Key:
Experiment in all cases: ELISA
[1] = target: VLDLR(28–797)Δ(751–779)-C-tag (VLDLR ectodomain) (human, UniProt P98155-2 28-797, Δ(751–779))
[2] = target: TL4
[3] = target: Clu mutant TL3 (human, UniProt P10909 23-227; P10909 228-449)
[4] = target: Clu mutant CC3 (human, UniProt P10909 23-227; P10909 228-449)
[5] = target: Clu mutant DD3 (human, UniProt P10909 23-227; P10909 228-449)
[6] = target: Clu mutant DD2 (human, UniProt P10909 23-227; P10909 228-449)
[7] = target: Clu mutant DD1 (human, UniProt P10909 23-227; P10909 228-449)

Binder | Kd [1] | Kd [2] | Kd [3] | Kd [4] | Kd [5] | Kd [6] | Kd [7]
Clu deletion mutant CC1 (natural protein, deletion taken as helix α7 = 244-257 as printed; exact CC1 limits only in Fig. 3a; five interchain disulfides; six N-glycans Secreted from HEK293E, glycosylated, Ca2+-bound LDLR repeats, disulfides; C-terminal C-tag left out. Deletion 751-779 taken as printed, in the numbering of the long isoform) chain 1: DQTVSDNELQEMSNQGSKYVNKEIQNAVNGVKQIKTLIEKTNEERKTLLSNLEEAKKKKEDALNETRESETKLKELPGVCNETMMALWEECKPCLKQTCMKFYARVCRSGSGLVGRQLEEFLNQSSPFYFWMNGDRIDSLLENDRQQTHMLDVMQDHFSRASSIIDELFQDRFFTREPQDTYHYLPFSLPHRRPHFFFPKSRIVR chain 2: SLMPFSPYEPLNFHAMMDIHFHSPAFQHPPTEFIREGDDDRTVCREIRHNSTGCLRMKDQCDKCREILSVDCSTNNPSQAKLRRELDESLQVAERLTRKYNELLKSYQWKMLNTSSLLEQLNEQFNWVSRLANLTQGEDQYYLRVTTVASHTSDSDVPSGVTEVVVKLFDSDPITVTVPVEVSRKNPKFMETVAEKALQEYRKKHREE | 662 nM |  |  |  |  |  | 
VLDLR(28–797)Δ(751–779)-C-tag (VLDLR ectodomain) (receptor) not shown |  | 256 nM | 989 nM | 109 nM | 1180 nM | 1190 nM | 137 nM

— PMC12527946 (2025)
